The assay deals with MMP-2 catalytic domain (MMP-2CAT) (UniProt P08253). In words: enzyme inhibition assay.

The source of these data is paper PMC5903968.

The Ki is the dissociation constant of the complex between target and ligand, obtained from inhibition or displacement.

MMP-2 catalytic domain (MMP-2CAT), sequence (P08253 30-660): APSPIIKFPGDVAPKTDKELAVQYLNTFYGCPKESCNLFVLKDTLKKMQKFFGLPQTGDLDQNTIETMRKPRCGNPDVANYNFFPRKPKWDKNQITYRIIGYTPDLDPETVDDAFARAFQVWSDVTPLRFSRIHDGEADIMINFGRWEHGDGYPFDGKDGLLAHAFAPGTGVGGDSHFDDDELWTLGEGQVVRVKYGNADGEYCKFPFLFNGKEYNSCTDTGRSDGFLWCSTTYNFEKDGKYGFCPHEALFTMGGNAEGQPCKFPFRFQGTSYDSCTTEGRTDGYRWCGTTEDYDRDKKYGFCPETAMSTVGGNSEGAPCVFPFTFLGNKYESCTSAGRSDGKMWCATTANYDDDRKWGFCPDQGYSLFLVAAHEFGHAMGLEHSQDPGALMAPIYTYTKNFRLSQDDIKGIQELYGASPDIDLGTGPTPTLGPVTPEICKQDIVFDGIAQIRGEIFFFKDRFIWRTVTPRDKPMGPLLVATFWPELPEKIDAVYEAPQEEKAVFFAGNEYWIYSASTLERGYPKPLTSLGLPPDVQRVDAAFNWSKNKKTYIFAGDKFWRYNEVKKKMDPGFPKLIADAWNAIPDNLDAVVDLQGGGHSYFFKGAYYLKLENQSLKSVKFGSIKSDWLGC

As to “N-terminal domain of TIMP-2 (N-TIMP2), wild type (from UniProt P16035 27-152) (domain or fragment)”, the Ki was 2.65 nM.
